Laboratory results from article PMC7020209 (Plants, 2020).
Like-named read-outs stand apart in the source and are kept apart here.

B1: Cp-GOXc (Cyanophora paradoxa) (protein)
chain: MQPLSAQALAQYRAAAPMDPVNVMEYQMVAKEKLPKMVYDYYASGADDQWTLQEARSAFERITFRPRVLVDVSVQDMSTTILGQKVAFPICVAPTAMQCMATGQGEKATSRAVASMNTLMTLSSWSTTPLEEVAKAAPHGARWFQLYVYKDRACTERLVRRAQAAGYKALCLTVDTPRLGRRENDVKNRFHLPDGLTMGNFLDLVQAEMPTDQKDSGLAAYVASLIDPTLNWKDVEWLKTITNLPIVVKGVLTAEDALMAVKHGCAGIVVSNHGARQLDYSPATIDVLEEVVNAVRGYPIEVYLDGGVRRGTDALKALALGARAVFVGRPVVWGLAAGGEEGVRKVLTMLRDEFKLGLALLGCQSLKDINRSMVVTPADRAKTAVRARL
B2: Sp-GOX (Spirogyra pratensis) (protein)
chain: MSSEVVNVTEFQAIAKQKLPKQTYDYYASGAEDEWSLRENRNAFERITFRPRILIDVSKIDLTTSVLGYRLSMPIMVAPTAMQKMAHPDGELATARAATSMNTAMTLSSWATSSVEEVSSTGPGLRFFQLYVYKNRDVVLQLVRRAEKAGFKAIALTVDTPRLGRREADIRNKFVLPPGLTLKNFEGLDLGKMDQTEDSGLASYVAGQIDRSLSWKDVKWLQSVTSMPILVKGVITGEDAKIAVECGASGIIVSNHGARQLDYVSSTINALEEVVKATAGRIPVFLDGGVRRGTDVLKALALGAKGVFVGRPVVFALASDGEAGVKKCLQMLRDEFELAMALAGCTKISDINRSLVQTEGDRIRMAARL

What was measured:
Conditions in all cases: co-substrate O2, 30 °C
N3-GOX = test: O2 consumption, Hansatech oxygen electrode, nonlinear Michaelis-Menten fit; format: biochemical, synthetic construct
Source text: O2 consumption, Hansatech oxygen electrode, nonlinear Michaelis-Menten fit on N3-GOX

purified protein [1] = substrate: C[C@H](O)C(=O)O; test: purified protein
purified protein [2] = substrate: O=C(O)CO; test: purified protein

Molecule | Km (N3-GOX; read-out: L-Lactate / Km) | Km (N3-GOX; read-out: Glycolate / Km) | Km (purified protein [1]) | Vmax (purified protein [1]) | Km (purified protein [2]) | Vmax (purified protein [2])
C[C@H](O)C(=O)O [L-lactate] | 13.7 ± 1.93 mM | – | – | – | – | –
O=C(O)CO [glycolate] | – | 11.8 ± 0.61 mM | – | – | – | –
B1 | – | – | 9.27 ± 1.44 mM | 6.94 µmol/min/mg | 0.38 ± 0.05 mM | 8.98 µmol/min/mg
B2 | – | – | 15.52 ± 4.55 mM | 24.2 µmol/min/mg | 0.94 ± 0.12 mM | 28.1 µmol/min/mg
